Results on one molecule are retold here after paper PMC2605961.

Common to all, as to experiment: EMSA
The target in data set [1] is T1, His-PRH (wild type) (human, UniProt Q03014 7-270).
T1 sequence: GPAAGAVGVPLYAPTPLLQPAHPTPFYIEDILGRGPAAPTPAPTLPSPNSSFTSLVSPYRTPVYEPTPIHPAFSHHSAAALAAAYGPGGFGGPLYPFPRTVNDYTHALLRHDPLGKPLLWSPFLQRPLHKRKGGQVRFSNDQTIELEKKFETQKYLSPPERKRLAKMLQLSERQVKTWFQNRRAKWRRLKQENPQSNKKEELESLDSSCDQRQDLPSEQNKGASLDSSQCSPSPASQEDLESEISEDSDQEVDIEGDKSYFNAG

Data set [2] concerns the target T2, His-PRH R188A,R189A (human, UniProt Q03014 7-270, R188A;R189A).
T2 sequence: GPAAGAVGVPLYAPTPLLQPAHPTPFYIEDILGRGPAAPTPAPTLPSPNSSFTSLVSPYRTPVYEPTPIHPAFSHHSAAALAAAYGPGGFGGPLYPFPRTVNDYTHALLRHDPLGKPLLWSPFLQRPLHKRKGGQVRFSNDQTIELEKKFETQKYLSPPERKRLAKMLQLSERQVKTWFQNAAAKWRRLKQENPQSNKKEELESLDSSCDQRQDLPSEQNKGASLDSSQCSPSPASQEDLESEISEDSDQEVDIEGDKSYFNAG

The target of data set [3] is T3, His-PRH N187A (human, UniProt Q03014 7-270, N187A).
T3 sequence: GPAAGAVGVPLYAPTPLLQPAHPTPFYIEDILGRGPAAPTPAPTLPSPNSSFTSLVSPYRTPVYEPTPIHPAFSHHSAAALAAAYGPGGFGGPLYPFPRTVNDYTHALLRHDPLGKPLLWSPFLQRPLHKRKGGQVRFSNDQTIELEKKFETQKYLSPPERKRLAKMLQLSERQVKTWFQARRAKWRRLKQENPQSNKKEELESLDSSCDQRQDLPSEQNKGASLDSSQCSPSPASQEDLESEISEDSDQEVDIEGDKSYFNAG

The target in data set [4] is T4, His-PRH F32E (human, UniProt Q03014 7-270, F32E).
T4 sequence: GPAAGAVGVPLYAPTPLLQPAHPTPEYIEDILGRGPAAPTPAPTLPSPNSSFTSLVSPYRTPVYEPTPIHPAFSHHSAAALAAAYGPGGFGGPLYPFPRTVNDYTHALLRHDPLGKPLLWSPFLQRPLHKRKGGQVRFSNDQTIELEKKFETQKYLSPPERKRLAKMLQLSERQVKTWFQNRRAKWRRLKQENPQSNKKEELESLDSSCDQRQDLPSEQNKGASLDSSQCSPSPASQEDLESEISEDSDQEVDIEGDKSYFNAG

B1: PRH-binding site oligonucleotide (dsDNA)
DNA 1: GCTTCTGGGAAGCAATTAAAAAATGGCTCGAGCT
DNA 2: CGAGCCATTTTTTAATTGCTTCCCAGA
Take B1: the binding result in data set [1] is “binds”; in data set [2], “no binding”; in data set [3], “no binding”; in data set [4], “binds”.
